The supplement of paper PMC10126150
± gives the standard deviation of the averaged measurements.

system: ATP; assay: switch fluorescence ratio, 500 uM ATP over buffer (Cy3 cluster intensity, sum of 5 cycles each) (fold (ratio)); higher = stronger signal-on switching upon ATP binding; sequences stand for … in TCGTCGGCAGCGTCAGATGTGTATAAGAGACAGTTTTTTTTTTTTTTTTTTTTTTTTT…TC; conditions: aptamer strand: ATP DNA aptamer (quencher-CACCTGGGGGAGTATTGCGGAGGAAGG + anchor), 100 nM annealed; ATP concentration: 500 uM
How it was run: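 Exposure to 500 uM ATP lasted 15 min at 22 °C before imaging, and a selection-buffer image was taken beforehand, for Cy3-labelled switching-strand clusters on a modified Illumina MiSeq flow-cell annealed to 100 nM quencher-labelled ATP aptamer. Five buffer/ATP cycles were run with NaOH stripping and re-annealing between them. The fluorescence ratio per cluster is summed target-cycle over summed buffer-cycle Cy3 intensity, averaged per switch-domain sequence. Clusters outside 100-1000 RFU were excluded.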

| Sequence | switch fluorescence ratio |
| --- | --- |
| TTTTGACGTG | 0.991 ± 0.013 |
| TTTTGACTTA | 1.04 ± 0.034 |
| TTTTGAGATG | 0.999 ± 0.024 |
| TTTTGAGCAT | 1.07 ± 0.12 |
| TTTTGAGCTG | 1.02 ± 0.029 |
| TTTTGAGGTC | 0.986 ± 0.064 |
| TTTTGATACT | 1.0096 ± 0.00024 |
| TTTTGATGG | 0.995 ± 0.036 |
| TTTTGATTAA | 1.02 ± 0.041 |
| TTTTGATTAG | 1.006 ± 0.0015 |
| TTTTGATTGT | 1.01 ± 0.055 |
| TTTTGCAATT | 1.98 ± 1.3 |
| TTTTGCACGG | 1.04 ± 0.0077 |
| TTTTGCGAAA | 1.55 ± 0.9 |
| TTTTGCGGGG | 1.08 ± 0.15 |
| TTTTGGAATT | 1.04 ± 0.16 |
| TTTTGGACCT | 1.3 ± 0.0093 |
| TTTTGGAGTA | 1.02 ± 0.047 |
| TTTTGGATCT | 0.982 ± 0.023 |
| TTTTGGATGT | 0.984 ± 0.048 |
| TTTTGGCGGG | 0.983 ± 0.022 |
| TTTTGGCGGT | 0.971 ± 0.055 |
| TTTTGGGGAC | 0.988 ± 0.043 |

| Sequence | switch fluorescence ratio |
| --- | --- |
| TTTTGGGGGA | 0.999 ± 0.04 |
| TTTTGGGGTC | 1.02 ± 0.023 |
| TTTTGGGTAC | 0.995 ± 0.04 |
| TTTTGGGTGC | 1.08 ± 0.089 |
| TTTTGGTAAA | 1 ± 0.038 |
| TTTTGGTAGG | 1.02 ± 0.02 |
| TTTTGGTCAT | 0.962 ± 0.053 |
| TTTTGGTCTC | 0.985 ± 0.036 |
| TTTTGGTGCG | 0.986 ± 0.041 |
| TTTTGGTTTA | 1 ± 0.011 |
| TTTTGTACAA | 1.04 ± 0.059 |
| TTTTGTACGG | 1.01 ± 0.018 |
| TTTTGTAGGT | 0.973 ± 0.056 |
| TTTTGTGAAT | 0.9561 ± 0.0045 |
| TTTTGTGGGC | 1.01 ± 0.055 |
| TTTTGTTACT | 1.01 ± 0.026 |
| TTTTGTTAGC | 1.01 ± 0.03 |
| TTTTGTTATA | 0.9783 ± 0.0036 |
| TTTTGTTGGT | 1 ± 0.028 |
| TTTTGTTGTC | 0.984 ± 0.037 |
| TTTTGTTTAG | 0.992 ± 0.021 |
| TTTTGTTTGG | 1.02 ± 0.041 |
| TTTTTAAAAT | 1.08 ± 0.22 |

| Sequence | switch fluorescence ratio |
| --- | --- |
| TTTTTAAACA | 1.01 ± 0.068 |
| TTTTTAAACG | 0.995 ± 0.014 |
| TTTTTAAATA | 0.986 ± 0.023 |
| TTTTTAAATC | 1 ± 0.044 |
| TTTTTAACAG | 0.997 ± 0.021 |
| TTTTTAAGCT | 1.02 ± 0.019 |
| TTTTTAATCA | 0.987 ± 0.014 |
| TTTTTAATGG | 1.01 ± 0.034 |
| TTTTTAATTT | 0.993 ± 0.023 |
| TTTTTACAGG | 1.13 ± 0.16 |
| TTTTTACGAG | 0.988 ± 0.045 |
| TTTTTACGTG | 0.969 ± 0.035 |
| TTTTTACTCG | 0.9965 ± 0.005 |
| TTTTTAGATT | 1.02 ± 0.031 |
| TTTTTAGCAT | 1.04 ± 0.084 |
| TTTTTAGCCC | 1.02 ± 0.053 |
| TTTTTAGGCA | 1 ± 0.042 |
| TTTTTAGGCG | 0.978 ± 0.028 |
| TTTTTAGTTA | 0.981 ± 0.01 |
| TTTTTAGTTC | 0.98 ± 0.027 |
| TTTTTATAAA | 1.01 ± 0.039 |
| TTTTTATAAC | 1 ± 0.031 |
| TTTTTATACG | 0.984 ± 0.072 |

| Sequence | switch fluorescence ratio |
| --- | --- |
| TTTTTATAGT | 1.02 ± 0.022 |
| TTTTTATCTT | 1.03 ± 0.046 |
| TTTTTATGGT | 0.984 ± 0.027 |
| TTTTTCAATG | 0.979 ± 0.042 |
| TTTTTCCATA | 1 ± 0.022 |
| TTTTTCCCAT | 1.03 ± 0.014 |
| TTTTTCCCCC | 1.04 ± 0.05 |
| TTTTTCCGGA | 0.997 ± 0.048 |
| TTTTTCCTAC | 1 ± 0.016 |
| TTTTTCGACC | 1.01 ± 0.035 |
| TTTTTCGG | 0.996 ± 0.025 |
| TTTTTCGGCT | 0.985 ± 0.044 |
| TTTTTCGGTA | 1.05 ± 0.038 |
| TTTTTCGGTT | 0.998 ± 0.039 |
| TTTTTCGTTG | 0.997 ± 0.049 |
| TTTTTCTAAA | 0.9834 ± 0.0074 |
| TTTTTCTCGG | 0.992 ± 0.01 |
| TTTTTCTTCT | 1.31 ± 0.36 |
| TTTTTGAAAG | 0.996 ± 0.013 |
| TTTTTGAAGG | 0.992 ± 0.024 |
| TTTTTGAATC | 0.983 ± 0.017 |
| TTTTTGAGAA | 0.983 ± 0.033 |
| TTTTTGATAT | 1.05 ± 0.056 |

| Sequence | switch fluorescence ratio |
| --- | --- |
| TTTTTGATTG | 1.01 ± 0.014 |
| TTTTTGCCGC | 1.02 ± 0.012 |
| TTTTTGCCTT | 1 ± 0.024 |
| TTTTTGCTGA | 1.01 ± 0.032 |
| TTTTTGCTTG | 0.98 ± 0.029 |
| TTTTTGGACG | 0.969 ± 0.081 |
| TTTTTGGATC | 1 ± 0.025 |
| TTTTTGGCGT | 1.02 ± 0.033 |
| TTTTTGGGAG | 1.01 ± 0.024 |
| TTTTTGGGCT | 0.996 ± 0.028 |
| TTTTTGGGTG | 1.03 ± 0.058 |
| TTTTTGGTA | 0.985 ± 0.011 |
| TTTTTGGTAG | 1 ± 0.042 |
| TTTTTGGTCG | 0.993 ± 0.086 |
| TTTTTGGTCT | 0.997 ± 0.027 |
| TTTTTGGTGG | 1 ± 0.032 |
| TTTTTGTACT | 1.11 ± 0.083 |
| TTTTTGTATC | 0.968 ± 0.022 |
| TTTTTGTCAC | 1.03 ± 0.038 |
| TTTTTGTGAT | 1.02 ± 0.032 |
| TTTTTGTGGA | 1.03 ± 0.019 |
| TTTTTGTGGT | 1 ± 0.036 |
| TTTTTGTGTG | 0.993 ± 0.023 |

| Sequence | switch fluorescence ratio |
| --- | --- |
| TTTTTGTTGA | 0.991 ± 0.026 |
| TTTTTGTTTT | 1 ± 0.035 |
| TTTTTTAAAA | 0.995 ± 0.03 |
| TTTTTTAATT | 1.03 ± 0.071 |
| TTTTTTACGA | 1.04 ± 0.028 |
| TTTTTTACTA | 1.023 ± 0.0015 |
| TTTTTTAGCG | 0.99 ± 0.029 |
| TTTTTTATA | 0.996 ± 0.032 |
| TTTTTTATAA | 1.01 ± 0.023 |
| TTTTTTCAAT | 1.03 ± 0.029 |
| TTTTTTCAGA | 0.975 ± 0.029 |
| TTTTTTCCGA | 1.02 ± 0.046 |
| TTTTTTCCTC | 1.1 ± 0.2 |
| TTTTTTCGGT | 1.01 ± 0.051 |
| TTTTTTCTAC | 1.31 ± 0.67 |
| TTTTTTCTCG | 1.04 ± 0.078 |
| TTTTTTCTTA | 0.995 ± 0.023 |
| TTTTTTCTTG | 1.02 ± 0.034 |
| TTTTTTGACG | 0.9938 ± 0.0062 |
| TTTTTTGAGG | 0.981 ± 0.025 |
| TTTTTTGAGT | 1 ± 0.023 |
| TTTTTTGATG | 1.01 ± 0.027 |
| TTTTTTGCAG | 0.987 ± 0.029 |

| Sequence | switch fluorescence ratio |
| --- | --- |
| TTTTTTGCCA | 1.01 ± 0.051 |
| TTTTTTGCCC | 1.02 ± 0.048 |
| TTTTTTGCTA | 1.01 ± 0.026 |
| TTTTTTGCTG | 0.985 ± 0.026 |
| TTTTTTGGG | 0.9686 ± 0.0027 |
| TTTTTTGGGA | 1.01 ± 0.019 |
| TTTTTTGGGG | 0.984 ± 0.023 |
| TTTTTTGTAT | 1.02 ± 0.087 |
| TTTTTTGTCT | 0.993 ± 0.021 |
| TTTTTTGTGT | 0.991 ± 0.03 |
| TTTTTTGTT | 0.977 ± 0.034 |
| TTTTTTGTTT | 1 ± 0.029 |
| TTTTTTTATA | 0.991 ± 0.024 |
| TTTTTTTCAG | 1.01 ± 0.016 |
| TTTTTTTCGT | 1.07 ± 0.21 |
| TTTTTTTCT | 1.01 ± 0.046 |
| TTTTTTTGAG | 1.02 ± 0.026 |
| TTTTTTTGAT | 1.16 ± 0.53 |
| TTTTTTTGTG | 0.984 ± 0.019 |
| TTTTTTTT | 1.04 ± 0.047 |
| TTTTTTTTGA | 0.998 ± 0.017 |
